Measurements from US20260167712A1, “INHIBITORY ANTIBODIES AGAINST GLUT1” (ICOSAGEN CELL FACTORY OÜ, priority 2022, published 2026).
“Also recorded” adds a separate entry of the source.

Tests used:
[1] = target: T1, HEK-293-ALL cells transfected with human SLC2A1 (Homo sapiens, UniProt P11166); assay: 2-Deoxyglucose uptake assay (Glucose Uptake-Glo); format: cell-based; details: 2-hour incubation, 0.35 nM to 6.89 μM, 1 mM 2DG for 20 min, FIG. 4
T1 construct: expressed in transfected cells; host or cells: HEK-293-ALL
T1 sequence (P11166 1-492): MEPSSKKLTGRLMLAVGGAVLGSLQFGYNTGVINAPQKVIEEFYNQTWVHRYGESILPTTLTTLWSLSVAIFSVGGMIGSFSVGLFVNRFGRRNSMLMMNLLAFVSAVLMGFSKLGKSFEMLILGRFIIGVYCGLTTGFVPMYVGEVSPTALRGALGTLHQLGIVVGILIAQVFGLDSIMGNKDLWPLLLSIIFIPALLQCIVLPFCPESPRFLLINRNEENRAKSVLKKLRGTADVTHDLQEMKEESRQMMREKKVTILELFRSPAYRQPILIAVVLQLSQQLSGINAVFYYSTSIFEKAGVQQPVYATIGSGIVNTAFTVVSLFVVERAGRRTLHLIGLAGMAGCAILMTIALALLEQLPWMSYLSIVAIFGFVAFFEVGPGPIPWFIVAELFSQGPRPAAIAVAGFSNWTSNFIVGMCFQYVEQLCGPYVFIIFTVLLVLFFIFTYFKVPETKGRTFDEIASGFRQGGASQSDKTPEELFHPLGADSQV
Description: To evaluate if the described anti-SLC2A1 antibodies inhibit glucose uptake, a commercial Glucose Uptake-Glo Assay kit (Promega) was utilized according to manufacturer's instructions. In short, HEK-293-ALL cells were transfected with human SLC2A1 expression plasmid and were incubated at 37° C. overnight in the presence of 5% CO2. Cells were washed with 0.5% BSA PBS twice and 7000 cells were plated per well into white clear bottom 96-well plates in 0.5% BSA PBS in the presence of 0.35 nM to 6.89 μM anti-SLC2A1 antibodies or glucose uptake inhibitor BAY-876 (CaymanChem). Cells were incubated for 2 hours at room temperature. Glucose uptake was initiated by the addition of 1 mM 2-deoxyglucose (2DG) and was allowed to proceed for 20 min at 37° C. in the presence of 5% CO2. After adding STOP and neutralization reagents included in the kit, luminescence was measured using GloMax Explorer microplate reader (Promega). Nonspecific luminescence was measured in lysates from cells without (2DG) being added. Data was normalized to nonspecific luminescence and to the average value of luminescence in the presence of no inhibitors.

[2] = tested on: MIAPACA2 pancreatic cancer cell line; assay: Cell proliferation inhibition assay (Incucyte), MIAPACA2; format: cell-based; details: alone, FIG. 11
Description: (§1) Incucyte S3 Live cell analysis instrument and Cell-by-Cell analysis software module (Sartorius) were used to evaluate the effect of anti-SLC2A1 antibodies on cancer cell proliferation label-free (FIGS. 5-11). MCF7, PC3 or PANC1 or MIAPACA2 cells were plated on flat bottom tissue culture 96-well plate in […] medium (Ximbio) supplemented with 2.5% FBS. Cells were incubated overnight and 0.02 nM to 13 μM anti-SLC2A1 antibodies, anti-HEL isotype control, PBS or BAY-876 were added to the cells alone or in combination with metformin (CaymanChem), phenformin (Sigma Aldrich) or IACS-010759 (CaymanChem). Cell confluence or object count was measured for 24 to 96 hours with Incucyte S3 and normalized to timepoint 0 h or 4h. anti-SLC2A1 antibodies inhibit cancer cell proliferation alone and especially in combination with complex-I inhibitors metformin, phenformin and IACS-010759. Exemplary antibodies 1G2 #9, 2A2 #12, 2E5 #22, 5G5 #30, 6F12 #33, 7C3 #39 and R14 #54 were used in proliferation assays.

MCF7 breast cancer cells = assay: Cell proliferation inhibition assay (Incucyte), MCF7; format: cell-based; details: for MCF7 cell growth (confluence), single agent: alone, Incucyte; for MCF7 cell growth in combination with phenformin: co-treatment with phenformin, FIGS. 7 and 9
Description: as §1

[3] = tested on: PC3 prostate cancer cell line; assay: Cell proliferation inhibition assay (Incucyte), PC3; format: cell-based; details: alone, FIG. 11
Description: as §1

SLC2A1 pseudotyped VLPs [4] = target: T2, SLC2A1 pseudotyped VLPs (Homo sapiens, UniProt P11166); assay: ELISA-based SLC2A1 VLP binding assay; details: 5 μg/mL VLP coating, FIG. 1
T2 sequence (P11166 1-492): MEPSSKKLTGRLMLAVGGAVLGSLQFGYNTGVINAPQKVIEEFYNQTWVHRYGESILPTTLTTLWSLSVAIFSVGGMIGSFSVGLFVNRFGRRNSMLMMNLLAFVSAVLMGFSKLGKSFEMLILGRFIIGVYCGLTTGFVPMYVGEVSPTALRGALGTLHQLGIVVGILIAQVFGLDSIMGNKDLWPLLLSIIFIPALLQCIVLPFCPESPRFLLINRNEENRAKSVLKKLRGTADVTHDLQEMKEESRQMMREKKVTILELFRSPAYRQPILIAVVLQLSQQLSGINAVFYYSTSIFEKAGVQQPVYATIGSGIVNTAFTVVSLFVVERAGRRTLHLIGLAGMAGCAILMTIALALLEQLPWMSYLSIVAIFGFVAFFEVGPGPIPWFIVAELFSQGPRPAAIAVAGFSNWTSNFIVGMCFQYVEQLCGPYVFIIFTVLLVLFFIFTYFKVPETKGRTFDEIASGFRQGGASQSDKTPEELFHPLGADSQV
Description: An ELISA-based VLP binding assay was carried out to compare the EC50 values of antibody clones (FIG. 1). Similarly, ELISA based VLP binding assay was performed to compare the binding of the antibodies to different glucose transporters (FIG. 3). MaxiSorp™ high-capacity binding ELISA plate (Thermo Fisher Scientific, US) were coated with 5 μg/mL SLC2A1, SLC2A2, SLC2A3, SLC2A4 pseudotyped VLPs or MOCK VLPs in PBS overnight. The plate was washed and blocked for 1 h with 0.05% Tween 20, 2% BSA in PBS. Serial dilutions of antibodies were incubated on a washed plate for 1 hour, followed by a 1-hour incubation with goat anti-human IgG horse radish peroxidase (HRP) conjugated (Invitrogen) antibody. TMB (3,3′,5,5′-Tetramethylbenzidine) Solution VII (Biopanda Diagnostics) was used as a substrate for HRP and 0.5 M H2SO4 was used as stop solution. After every step, the wells were washed with 0.05% Tween 20, 0.1% Proclin 300 PBS solution. Absorption at 450 nm was measured with Thermo Scientific™ Multiskan™ FC Microplate Photometer. Exemplary wise used antibodies 1G2 #9, 2A2 #12, 2E5 #22, 5G5 #30, 6F12 #33, 7C3 #39 all bound SLC2A1 VLPs with low nanomolar EC50 values (FIG. 1).

SLC2A1 pseudotyped VLPs [5] = target: T3, SLC2A1 pseudotyped VLPs (UniProt P11166 1-492); assay: ELISA
T3 chain: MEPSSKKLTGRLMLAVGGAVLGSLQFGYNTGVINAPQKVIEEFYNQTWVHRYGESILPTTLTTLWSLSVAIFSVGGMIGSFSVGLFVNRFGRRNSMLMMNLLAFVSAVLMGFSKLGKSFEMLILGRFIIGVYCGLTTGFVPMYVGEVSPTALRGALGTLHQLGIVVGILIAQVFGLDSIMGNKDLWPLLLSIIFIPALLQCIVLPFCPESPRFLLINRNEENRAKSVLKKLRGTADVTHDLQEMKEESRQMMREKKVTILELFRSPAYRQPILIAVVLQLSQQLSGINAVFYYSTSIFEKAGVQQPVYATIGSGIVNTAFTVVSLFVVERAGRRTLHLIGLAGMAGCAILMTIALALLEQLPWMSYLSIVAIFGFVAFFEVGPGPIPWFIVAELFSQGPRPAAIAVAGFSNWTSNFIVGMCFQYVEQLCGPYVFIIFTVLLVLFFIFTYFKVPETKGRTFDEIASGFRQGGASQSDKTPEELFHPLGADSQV

Cc1c(NC(=O)c2cc(C(N)=O)nc3cc(F)ccc23)c(C(F)(F)F)nn1Cc1ccc(C#N)cc1 [BAY-876, reference compound]
glucose (2-deoxyglucose) uptake [1]: strong concentration dependent decrease

Cc1nc(-c2nc(-c3ccc(OC(F)(F)F)cc3)no2)nn1Cc1cccc(N2CCC(S(C)(=O)=O)CC2)c1 [IACS-010759, reference compound]
MIAPACA2 cell growth, single agent [2]: inhibited
MCF7 cell growth (confluence), single agent (MCF7 breast cancer cells): did not influence cell growth
PC3 cell growth, single agent [3]: inhibited

CN(C)C(=N)N=C(N)N [Metformin, metformin, reference compound]
MCF7 cell growth (confluence), single agent (MCF7 breast cancer cells): did not influence cell growth

[H]/N=C(/N)N/C(=N/[H])NCCc1ccccc1 [phenformin, reference compound]
MCF7 cell growth (confluence), single agent (MCF7 breast cancer cells): did not influence cell growth; also recorded: No growth inhibition

B1: 1G2 #9 (antibody, V domains shown)
VH: AVTLDESGGGLQTPGGALSLVCKASGFTFSTKGMGWVRQTPGKGLEWVAGISSMRRYTYYAPAVKGRATISRDNGQSTVRLQLSSLRAEDSGTYYCARDATYCSWTTSTCGWSGGTIDAWGHGTEVIVSS
VL: ALTQPSSVSANPGETVKITCSGSSGSYGWYQQKSPGSAPVTVIYWDDERPSGIPSRFSGSASGSTATLTITGVQAEDEAVYFCGSIDSSVGYVGIFGAGTTLTVL
EC50 of binding to SLC2A1 VLPs (SLC2A1 pseudotyped VLPs [4]): low nanomolar
MCF7 cell growth in combination with phenformin (MCF7 breast cancer cells): No growth inhibition
EC50 (SLC2A1 pseudotyped VLPs [5]): 4.1 nM

B2: 7C3 #39 (antibody, V domains shown)
VH: AVTLDESGGGLQTPGGALSLVCKASGFTFSTKGMGWVRQTPGKGLEWVAGISSMRRYTYYAPAVKGRATISRDNGQSTVRLQLSSLRAEDSGTYYCARDATYCSWTTSTCGWSGGTIDAWGHGTEVIVSS
VL: ALTQPSSVSANLGGTVKITCSGGGSSSYYGWYQQKSPGSAPVTVIYGNDRRPSDIPSRFSGSASGSTATLTITGVQAEDEAVYFCGSADSSDSGSGIFGAGTTLTVL
EC50 of binding to SLC2A1 VLPs (SLC2A1 pseudotyped VLPs [4]): low nanomolar
MCF7 cell growth in combination with phenformin (MCF7 breast cancer cells): completely inhibit; also recorded: most potent growth inhibitors
EC50 (SLC2A1 pseudotyped VLPs [5]): 1.4 nM

B3: 2A2 #12 (antibody, V domains shown)
VH: AVTLDESGGGLQTPGGALSLVCKGSGFTFSTKGMMWVRQAPGKGLEWVAGISSMSRYTYYAPAVKGRATISRDNGQSAVRLQLSSLRAEDTGTYYCARDATYCSWTASTCGWSGGTIDAWGHGTEVIVSS
VL: ALTQPSSVSANPGETVKITCSGGYSYYGTYYYSWYQQKSPGSAPVTLIYRNDKRPSDIPSRFSGSGSGSTSTLTITGVQAEDEAVYFCGSYDSSDSGIFGAGTTLTVL
EC50 of binding to SLC2A1 VLPs (SLC2A1 pseudotyped VLPs [4]): low nanomolar
MCF7 cell growth in combination with phenformin (MCF7 breast cancer cells): No growth inhibition
EC50 (SLC2A1 pseudotyped VLPs [5]): 2.9 nM

B4: 5G5 #30 (antibody, V domains shown)
VH: AVTLDESGGGLQTPGGALSLVCKASGFTFSSHAIFWVRQAPDKGLEFVAAISSSSGSWTAYATVVKGRATISRDNGQSTVRLQLNNLRAEDTGTYYCAKAAGSACCYAGSIDAWGHGTEVIVSS
VL: ALTQPSSVSANPGETVKITCSGGSGSSYYGWYQQKSPGSAPVTVIYYDDKRPSDIPSRFSGSKSGSTATLTITGVQVEDEAVYYCGTGDGSIAIFGAGTTLTVL
EC50 of binding to SLC2A1 VLPs (SLC2A1 pseudotyped VLPs [4]): low nanomolar
MCF7 cell growth in combination with IACS-010759 (MCF7 breast cancer cells; co-treatment with IACS-010759, FIG. 8): drastically inhibited
MCF7 cell growth in combination with metformin (MCF7 breast cancer cells; co-treatment with metformin, FIG. 6): drastically inhibited
MCF7 cell growth in combination with phenformin (MCF7 breast cancer cells): completely inhibit; also recorded: drastically inhibited; also recorded: most potent growth inhibitors
EC50 (SLC2A1 pseudotyped VLPs [5]): 1.2 nM
